Measured values reported in patent US11833164B2, “Methods of treating Fabry disease in patients having a mutation in the GLA gene” (Amicus Therapeutics, Inc., priority 2019, dated 2023).
Residue numbers refer to the chain shown, from its start. In names and notes the source's numbering stands.

System: mutant form of α-Gal A expressed in HEK-293 cells
Test: HEK assay (GLP HEK / Migalastat Amenability Assay): α-Gal A activity in lysates of transiently transfected HEK-293 cells incubated with or without 10 μM migalastat
Format: cell-based, human
Settings: for Absolute increase (% WT) / Relative increase: 10 μM migalastat versus baseline; for Baseline α-Gal A activity (% WT): absence of migalastat; for Baseline α-Gal A activity (% WT) / 10 μM migalastat α-Gal A activity (% WT): percentage of baseline wild-type α-Gal A activity; for Baseline α-Gal A activity (% WT) / Baseline α-Gal A activity / 10 μM migalastat α-Gal A activity / 10 μM migalastat α-Gal A activity (% WT) / Baseline α-Gal A activity (nmol/mg/hr): mean ± SEM; for Baseline α-Gal A activity / 10 μM migalastat α-Gal A activity / Baseline α-Gal A activity (nmol/mg/hr): lysates of HEK-293 cells transiently transfected with the mutant form; for Baseline α-Gal A activity / Baseline α-Gal A activity (nmol/mg/hr): incubated 5 days in absence of migalastat; for 10 μM migalastat α-Gal A activity: incubated 5 days with 10 μM migalastat; for 10 μM migalastat α-Gal A activity (% WT): with 10 μM migalastat, 5 days
In short: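 Activity reported as 4-MU released (nmol/mg/hr), mean±SEM, from lysates of transiently transfected HEK-293 cells expressing mutant α-Gal A, cultured with or without 10 μM migalastat.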

B1: F295Y (protein)
chain: MQLRNPELHLGCALALRFLALVSWDIPGARALDNGLARTPTMGWLHWERFMCNLDCQEEPDSCISEKLFMEMAELMVSEGWKDAGYEYLCIDDCWMAPQRDSEGRLQADPQRFPHGIRQLANYVHSKGLKLGIYADVGNKTCAGFPGSFGYYDIDAQTFADWGVDLLKFDGCYCDSLENLADGYKHMSLALNRTGRSIVYSCEWPLYMWPFQKPNYTEIRQYCNHWRNFADIDDSWKSIKSILDWTSFNQERIVDVAGPGGWNDPDMLVIGNFGLSWNQQVTQMALWAIMAAPLYMSNDLRHISPQAKALLQDKDVIAINQDPLGKQGYQLRQGDNFEVWERPLSGLAWAVAMINRQEIGGPRSYTIAVASLGKGVACNPACFITQLLPVKRKLGFYEWTSRLRSHINPTGTVLLQLENTMQMSLKDLL
Absolute increase (% WT): 36.3 % WT | Relative increase: 1.6 | Baseline α-Gal A activity (% WT): 62.9 ± 6.1 % WT | Baseline α-Gal A activity: 21452 ± 1929 nmol/mg/h | 10 μM migalastat α-Gal A activity: 34502 ± 2504 nmol/mg/h | 10 μM migalastat α-Gal A activity (% WT): 99.2 ± 6.5 % WT

B2: N298D (protein)
chain: B1 chain with Y295F, N298D
Absolute increase (% WT): 21.7 % WT | Relative increase: 9.6 | Baseline α-Gal A activity (% WT): 2.5 ± 0.2 % WT | Baseline α-Gal A activity: 795 ± 56 nmol/mg/h | 10 μM migalastat α-Gal A activity: 7645 ± 388 nmol/mg/h | 10 μM migalastat α-Gal A activity (% WT): 24.2 ± 1.2 % WT

B3: H302Y (protein)
chain: B1 chain with Y295F, H302Y
Absolute increase (% WT): 25.3 % WT | Relative increase: 1.4 | Baseline α-Gal A activity (% WT): 59 ± 3.5 % WT | Baseline α-Gal A activity: 22554 ± 1372 nmol/mg/h | 10 μM migalastat α-Gal A activity: 31688 ± 1241 nmol/mg/h | 10 μM migalastat α-Gal A activity (% WT): 84.2 ± 5.2 % WT

B4: D299N (protein)
chain: B1 chain with Y295F, D299N
Absolute increase (% WT): 7.8 % WT | Relative increase: 1.2 | Baseline α-Gal A activity (% WT): 29.2 ± 4.7 % WT | Baseline α-Gal A activity: 11973 ± 1961 nmol/mg/h | 10 μM migalastat α-Gal A activity: 14668 ± 809 nmol/mg/h | 10 μM migalastat α-Gal A activity (% WT): 37.1 ± 2.9 % WT

B5: L300I (protein)
chain: B1 chain with Y295F, L300I
Absolute increase (% WT): 34.4 % WT | Relative increase: 2.6 | Baseline α-Gal A activity (% WT): 20.7 ± 0.9 % WT | Baseline α-Gal A activity: 7328 ± 448 nmol/mg/h | 10 μM migalastat α-Gal A activity: 19317 ± 757 nmol/mg/h | 10 μM migalastat α-Gal A activity (% WT): 55.1 ± 2 % WT

B6: S304I (protein)
chain: B1 chain with Y295F, S304I
Absolute increase (% WT): 13.9 % WT | Relative increase: 1.5 | Baseline α-Gal A activity (% WT): 30.6 ± 1.4 % WT | Baseline α-Gal A activity: 11675 ± 939 nmol/mg/h | 10 μM migalastat α-Gal A activity: 17257 ± 1837 nmol/mg/h | 10 μM migalastat α-Gal A activity (% WT): 44.6 ± 2.4 % WT

B7: N298T (protein)
chain: B1 chain with Y295F, N298T
Absolute increase (% WT): 14.2 % WT | Relative increase: 1.2 | Baseline α-Gal A activity (% WT): 61.2 ± 4.7 % WT | Baseline α-Gal A activity: 20581 ± 1736 nmol/mg/h | 10 μM migalastat α-Gal A activity: 25249 ± 1705 nmol/mg/h | 10 μM migalastat α-Gal A activity (% WT): 75.4 ± 4.3 % WT

B8: I303S (protein)
chain: B1 chain with Y295F, I303S
Absolute increase (% WT): 3.8 % WT | Baseline α-Gal A activity (nmol/mg/hr): BLD (“BLD” indicates that the mean α-Gal A activity was below the limit of detection (<142 nmol/mg/hr)) | 10 μM migalastat α-Gal A activity: 1496 ± 117 nmol/mg/h | 10 μM migalastat α-Gal A activity (% WT): 3.8 ± 0.3 % WT

B9: H302L (protein)
chain: B1 chain with Y295F, H302L
Absolute increase (% WT): 24.6 % WT | Relative increase: 1.4 | Baseline α-Gal A activity (% WT): 60.7 ± 5.1 % WT | Baseline α-Gal A activity: 24188 ± 1797 nmol/mg/h | 10 μM migalastat α-Gal A activity: 34251 ± 1760 nmol/mg/h | 10 μM migalastat α-Gal A activity (% WT): 85.3 ± 4.7 % WT

B10: S297T (protein)
chain: B1 chain with Y295F, S297T
Absolute increase (% WT): 9.7 % WT | Baseline α-Gal A activity (nmol/mg/hr): BLD (“BLD” indicates that the mean α-Gal A activity was below the limit of detection (<142 nmol/mg/hr)) | 10 μM migalastat α-Gal A activity: 3178 ± 327 nmol/mg/h | 10 μM migalastat α-Gal A activity (% WT): 9.7 ± 0.8 % WT

B11: D299H (protein)
chain: B1 chain with Y295F, D299H
Absolute increase (% WT): 22.1 % WT | Relative increase: 23.5 | Baseline α-Gal A activity (% WT): 1 ± 0.1 % WT | Baseline α-Gal A activity: 358 ± 36 nmol/mg/h | 10 μM migalastat α-Gal A activity: 8424 ± 875 nmol/mg/h | 10 μM migalastat α-Gal A activity (% WT): 23.1 ± 2.4 % WT

B12: L300V (protein)
chain: B1 chain with Y295F, L300V
Absolute increase (% WT): 14.0 % WT | Relative increase: 13.2 | Baseline α-Gal A activity (% WT): 1.3 ± 0.2 % WT | Baseline α-Gal A activity: 406 ± 48 nmol/mg/h | 10 μM migalastat α-Gal A activity: 5354 ± 203 nmol/mg/h | 10 μM migalastat α-Gal A activity (% WT): 15.3 ± 0.6 % WT

B13: H302N (protein)
chain: B1 chain with Y295F, H302N
Absolute increase (% WT): 30.2 % WT | Relative increase: 1.3 | Baseline α-Gal A activity (% WT): 91.2 ± 4.3 % WT | Baseline α-Gal A activity: 31958 ± 1777 nmol/mg/h | 10 μM migalastat α-Gal A activity: 42296 ± 2028 nmol/mg/h | 10 μM migalastat α-Gal A activity (% WT): 121.4 ± 6.2 % WT

B14: N298I (protein)
chain: B1 chain with Y295F, N298I
Absolute increase (% WT): 34.9 % WT | Relative increase: 4.7 | Baseline α-Gal A activity (% WT): 9.2 ± 0.7 % WT | Baseline α-Gal A activity: 2942 ± 262 nmol/mg/h | 10 μM migalastat α-Gal A activity: 13906 ± 535 nmol/mg/h | 10 μM migalastat α-Gal A activity (% WT): 44.1 ± 1.8 % WT

B15: Q306E (protein)
chain: B1 chain with Y295F, Q306E
Absolute increase (% WT): 19.7 % WT | Relative increase: 1.2 | Baseline α-Gal A activity (% WT): 82 ± 2.8 % WT | Baseline α-Gal A activity: 31745 ± 2212 nmol/mg/h | 10 μM migalastat α-Gal A activity: 39019 ± 2405 nmol/mg/h | 10 μM migalastat α-Gal A activity (% WT): 101.7 ± 4.2 % WT

B16: H302D (protein)
chain: B1 chain with Y295F, H302D
Absolute increase (% WT): 25.8 % WT | Relative increase: 1.3 | Baseline α-Gal A activity (% WT): 95.1 ± 5.8 % WT | Baseline α-Gal A activity: 32677 ± 1437 nmol/mg/h | 10 μM migalastat α-Gal A activity: 41716 ± 1847 nmol/mg/h | 10 μM migalastat α-Gal A activity (% WT): 120.8 ± 6.6 % WT
